Data set [1] concerns the target RXRa (Homo sapiens, UniProt P19793). Nature of the data set: no ligand; PBM; 180 nM; PBS pH 7.4, 2% milk, 0.02% Triton X-100, 1 mM DTT, BSA, 0.4 mg/ml salmon testes DNA. The settings on record: tags: His cleaved; chain copies: 2; label: surface-attached array probe.
For data set [2], the target named is PPARg:RXRa (Homo sapiens, UniProt P37231;P19793 full;full). Kind of data set: no ligand; PBM; 180 nM : 90 nM RXRa; PBS pH 7.4, 2% milk, 0.02% Triton X-100, 1 mM DTT, BSA, 0.4 mg/ml salmon testes DNA. As to conditions: tags: His kept;His cleaved; copies: 1;1; label: surface-attached array probe.
Data set [3] deals with PPARa:RXRa (Homo sapiens, UniProt Q07869;P19793 full;full). Kind of data set: no ligand; PBM; 270 nM : 90 nM RXRa; PBS pH 7.4, 2% milk, 0.02% Triton X-100, 1 mM DTT, BSA, 0.4 mg/ml salmon testes DNA. As to conditions: tags: GST kept;His cleaved; copies: 1;1; label: surface-attached array probe. In outline:
(§1)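 Binding z-scores were set against random background probes. The data came from custom Agilent 4×180K protein-binding microarrays carrying double-stranded probes with 34-nt variable regions, incubated 1 h with ligand-free nuclear receptor dimers. Partner-specific antibodies detected binding, and scanned fluorescence was regression-normalized.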

The target of data set [4] is PXR:RXRa (Homo sapiens, UniProt O75469;P19793 full;full). Described as above. The settings on record: tags: His kept;His cleaved; copies: 1;1; label: surface-attached array probe. In outline:
as §1

Data set [5] has as its target RARa:RXRa (Homo sapiens, UniProt P10276;P19793 full;full). Described as above. As to conditions: tags: His kept;His cleaved; copies: 1;1; label: surface-attached array probe. The method in brief:
as §1

Data set [6] has as its target LXRa:RXRa (Homo sapiens, UniProt Q13133;P19793 full;full). Described as above. The settings on record: tags: His kept;His cleaved; copies: 1;1; label: surface-attached array probe. In outline: as §1
The target of data set [7] is RARg:RXRa (Homo sapiens, UniProt P13631;P19793 full;full). Described as above. As to conditions: tags: His kept;His cleaved; copies: 1;1; label: surface-attached array probe. In outline:
as §1

Data set [8] concerns the target RARb:RXRa (Homo sapiens, UniProt P10826;P19793 full;full). The description is as above. As to conditions: tags: His kept;His cleaved; copies: 1;1; label: surface-attached array probe. In outline:
as §1

The target in data set [9] is LXRb:RXRa (Homo sapiens, UniProt P55055;P19793 full;full). Described as above. The settings on record: tags: His kept;His cleaved; copies: 1;1; label: surface-attached array probe. In outline: as §1
Data set [10] concerns the target VDR:RXRa (Homo sapiens, UniProt P11473;P19793 full;full). The data set is described as above. The settings on record: tags: His kept;His cleaved; copies: 1;1; label: surface-attached array probe. In outline:
as §1

Chain of RXRa (P19793 whole entry): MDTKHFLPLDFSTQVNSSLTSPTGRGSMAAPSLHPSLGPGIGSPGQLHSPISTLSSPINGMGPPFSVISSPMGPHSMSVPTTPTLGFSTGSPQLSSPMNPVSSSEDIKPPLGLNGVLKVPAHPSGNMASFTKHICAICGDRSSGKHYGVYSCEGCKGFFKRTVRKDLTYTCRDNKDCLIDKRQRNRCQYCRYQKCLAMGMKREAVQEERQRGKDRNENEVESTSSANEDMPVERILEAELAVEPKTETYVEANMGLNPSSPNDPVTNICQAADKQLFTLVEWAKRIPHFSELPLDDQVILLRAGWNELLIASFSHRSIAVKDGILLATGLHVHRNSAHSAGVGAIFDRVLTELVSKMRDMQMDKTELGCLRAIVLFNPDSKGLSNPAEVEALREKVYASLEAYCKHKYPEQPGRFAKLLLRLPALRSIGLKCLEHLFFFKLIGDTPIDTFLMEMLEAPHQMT
Chain of PXR:RXRa (O75469 whole entry, chain 1 of 2): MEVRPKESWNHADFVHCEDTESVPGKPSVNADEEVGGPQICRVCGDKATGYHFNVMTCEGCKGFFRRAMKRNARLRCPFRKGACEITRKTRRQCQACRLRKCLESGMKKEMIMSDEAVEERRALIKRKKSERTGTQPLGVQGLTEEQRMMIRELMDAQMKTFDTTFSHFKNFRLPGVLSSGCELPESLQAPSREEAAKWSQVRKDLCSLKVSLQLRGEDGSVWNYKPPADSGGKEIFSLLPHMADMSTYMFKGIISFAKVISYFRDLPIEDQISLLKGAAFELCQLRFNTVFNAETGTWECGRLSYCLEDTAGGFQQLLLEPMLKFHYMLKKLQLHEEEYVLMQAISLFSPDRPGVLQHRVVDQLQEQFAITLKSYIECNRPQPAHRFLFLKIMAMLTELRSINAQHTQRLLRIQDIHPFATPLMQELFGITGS
Chain of PXR:RXRa (P19793 whole entry, chain 2 of 2): as the sequence (P19793 whole entry) above
Chain of RARa:RXRa (P10276 whole entry, chain 1 of 2): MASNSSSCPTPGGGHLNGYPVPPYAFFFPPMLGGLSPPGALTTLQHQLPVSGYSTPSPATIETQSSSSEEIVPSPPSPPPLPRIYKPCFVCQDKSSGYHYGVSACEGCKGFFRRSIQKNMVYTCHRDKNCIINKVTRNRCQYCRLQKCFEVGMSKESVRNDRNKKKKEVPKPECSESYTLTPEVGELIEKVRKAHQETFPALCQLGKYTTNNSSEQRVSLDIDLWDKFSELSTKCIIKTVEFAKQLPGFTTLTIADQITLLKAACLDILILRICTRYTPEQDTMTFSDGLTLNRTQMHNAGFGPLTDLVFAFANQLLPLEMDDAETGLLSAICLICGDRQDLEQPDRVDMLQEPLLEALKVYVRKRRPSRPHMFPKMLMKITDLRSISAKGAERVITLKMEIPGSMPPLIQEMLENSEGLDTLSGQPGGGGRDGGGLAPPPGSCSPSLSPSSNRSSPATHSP
Chain of RARa:RXRa (P19793 whole entry, chain 2 of 2): as the sequence (P19793 whole entry) above
Chain of PPARa:RXRa (Q07869 whole entry, chain 1 of 2): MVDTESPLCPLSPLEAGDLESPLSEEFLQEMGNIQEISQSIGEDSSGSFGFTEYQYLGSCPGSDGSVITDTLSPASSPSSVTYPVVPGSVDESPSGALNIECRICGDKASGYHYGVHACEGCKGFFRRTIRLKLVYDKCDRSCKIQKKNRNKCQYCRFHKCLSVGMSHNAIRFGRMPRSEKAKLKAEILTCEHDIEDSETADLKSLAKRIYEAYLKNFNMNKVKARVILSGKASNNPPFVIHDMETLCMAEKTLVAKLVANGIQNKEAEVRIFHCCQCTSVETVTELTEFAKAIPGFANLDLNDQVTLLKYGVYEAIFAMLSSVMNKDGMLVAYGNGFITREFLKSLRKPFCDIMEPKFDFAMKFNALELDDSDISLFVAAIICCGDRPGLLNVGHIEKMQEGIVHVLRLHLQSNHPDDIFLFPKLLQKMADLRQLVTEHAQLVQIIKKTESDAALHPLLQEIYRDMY
Chain of PPARa:RXRa (P19793 whole entry, chain 2 of 2): as the sequence (P19793 whole entry) above
Chain of PPARg:RXRa (P37231 29-505, chain 1 of 2): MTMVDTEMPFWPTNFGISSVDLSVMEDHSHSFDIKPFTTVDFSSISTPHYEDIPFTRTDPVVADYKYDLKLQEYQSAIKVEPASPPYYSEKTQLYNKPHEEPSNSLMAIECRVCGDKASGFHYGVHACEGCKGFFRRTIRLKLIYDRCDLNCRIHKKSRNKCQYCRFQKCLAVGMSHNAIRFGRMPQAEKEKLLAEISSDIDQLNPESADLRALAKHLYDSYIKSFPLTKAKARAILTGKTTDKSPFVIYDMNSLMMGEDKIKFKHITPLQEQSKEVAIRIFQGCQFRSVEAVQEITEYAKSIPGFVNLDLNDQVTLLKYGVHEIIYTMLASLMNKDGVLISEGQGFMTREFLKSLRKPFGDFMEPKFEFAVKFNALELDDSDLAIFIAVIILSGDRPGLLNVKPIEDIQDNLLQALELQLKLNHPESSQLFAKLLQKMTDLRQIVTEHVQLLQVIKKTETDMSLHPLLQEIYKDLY
Chain of PPARg:RXRa (P19793 whole entry, chain 2 of 2): as the sequence (P19793 whole entry) above

B1: NRC3_wobSeed44_DR1_A18G_o1 (dsDNA)
DNA 1: GCTGAATGAGGTTAAAGGTCAGGGAACGTGGCGTCGGCGATTGACAGCGTAGAATGAAGG
DNA 2: CCTTCATTCTACGCTGTCAATCGCCGACGCCACGTTCCCTGACCTTTAACCTCATTCAGC
In the case of B1, the binding signal is 9.53 PBM z-score against 500 random probes in data set [1]; 11.9 PBM z-score against 500 random probes in data set [2]; 6.96 PBM z-score against 500 random probes in [3]; 6.68 PBM z-score against 500 random probes in [4]; 9.15 PBM z-score against 500 random probes in data set [5].

B2: NRC3_random_hg19_59_o1 (dsDNA)
DNA 1: GCCAGTTCAAGACCAGCCTGGCCAACATGGTGAAACGCGATTGACAGCGTAGAATGAAGG
DNA 2: CCTTCATTCTACGCTGTCAATCGCGTTTCACCATGTTGGCCAGGCTGGTCTTGAACTGGC
As for B2, the binding signal in data set [2] was 0.03 PBM z-score against 500 random probes; in [6], 0.49 PBM z-score against 500 random probes; in data set [5], -0 PBM z-score against 500 random probes.

B3: NRC3_wobSeed26_DR1_T9C_o1 (dsDNA)
DNA 1: GCTCTAGTCGGTCAAAGGTCACACACTCGAAATGCGGCGATTGACAGCGTAGAATGAAGG
DNA 2: CCTTCATTCTACGCTGTCAATCGCCGCATTTCGAGTGTGTGACCTTTGACCGACTAGAGC
Regarding B3, the binding signal was 8.95 PBM z-score against 500 random probes in [1]; 12.4 PBM z-score against 500 random probes in data set [2]; 6.67 PBM z-score against 500 random probes in data set [6]; 6.91 PBM z-score against 500 random probes in data set [3]; 8.22 PBM z-score against 500 random probes in [5]; 8.36 PBM z-score against 500 random probes in [7].

B4: NRC3_random_hg19_13_o1 (dsDNA)
DNA 1: GCCACATCTGTAATCCCAGCACTTTGGGAGGCCAAGGCGATTGACAGCGTAGAATGAAGG
DNA 2: CCTTCATTCTACGCTGTCAATCGCCTTGGCCTCCCAAAGTGCTGGGATTACAGATGTGGC
Take B4: the binding signal in [1] was 0.22 PBM z-score against 500 random probes; in data set [2] it was 0.3 PBM z-score against 500 random probes; in data set [5], 0.01 PBM z-score against 500 random probes.

B5: NRC3_wobSeed43_DR1_A20C_o1 (dsDNA)
DNA 1: GCCCAGACAGGTGAAAGGTCACTCAGTCTGGTACGCGCGATTGACAGCGTAGAATGAAGG
DNA 2: CCTTCATTCTACGCTGTCAATCGCGCGTACCAGACTGAGTGACCTTTCACCTGTCTGGGC
For B5, the binding signal in [1] was 8.23 PBM z-score against 500 random probes; in data set [2], 10.4 PBM z-score against 500 random probes; in data set [5] it was 7.65 PBM z-score against 500 random probes.

B6: NRC3_wobSeed36_DR1_T20C_o1 (dsDNA)
DNA 1: GCCCGACTGGGGCAAAGGTCACCATACTCAGTACGAGCGATTGACAGCGTAGAATGAAGG
DNA 2: CCTTCATTCTACGCTGTCAATCGCTCGTACTGAGTATGGTGACCTTTGCCCCAGTCGGGC
Consider B6, for which the binding signal in data set [1] is 8.25 PBM z-score against 500 random probes; in data set [2] it was 12.5 PBM z-score against 500 random probes; in data set [3] it was 6.53 PBM z-score against 500 random probes; in data set [5], 7.41 PBM z-score against 500 random probes.

B7: NRC3_wobSeed30_DR1_C12T_o1 (dsDNA)
DNA 1: GCACTAGCAGGTCAAGGGTCACTCAAGATTAGTCCGGCGATTGACAGCGTAGAATGAAGG
DNA 2: CCTTCATTCTACGCTGTCAATCGCCGGACTAATCTTGAGTGACCCTTGACCTGCTAGTGC
For B7, the results for the binding signal in [1], in [2] and in data set [5] were 8.53 PBM z-score against 500 random probes, 11.2 PBM z-score against 500 random probes and 8.23 PBM z-score against 500 random probes, respectively.

B8: NRC3_wobSeed39_DR1_A19T_o1 (dsDNA)
DNA 1: GCCGAACTAGGTCAAAGGTCAGTGAAAGGCGACGTAGCGATTGACAGCGTAGAATGAAGG
DNA 2: CCTTCATTCTACGCTGTCAATCGCTACGTCGCCTTTCACTGACCTTTGACCTAGTTCGGC
With B8, the binding signal is 9.27 PBM z-score against 500 random probes in data set [1]; 14 PBM z-score against 500 random probes in data set [2]; 5.46 PBM z-score against 500 random probes in data set [8]; 7.58 PBM z-score against 500 random probes in data set [3]; 6.52 PBM z-score against 500 random probes in data set [4]; 8.51 PBM z-score against 500 random probes in data set [5]. For the same molecule, the binding signal in data set [7] is 8.09 PBM z-score against 500 random probes.

B9: NRC3_wobSeed31_DR1_A13C_o1 (dsDNA)
DNA 1: GCTCATATAGGTCAAAGGTGAAAGTCGGTGTGGTAAGCGATTGACAGCGTAGAATGAAGG
DNA 2: CCTTCATTCTACGCTGTCAATCGCTTACCACACCGACTTTCACCTTTGACCTATATGAGC
Regarding B9, the binding signal is 8.68 PBM z-score against 500 random probes in [1], 11.9 PBM z-score against 500 random probes in [2], 6.9 PBM z-score against 500 random probes in data set [3] and 7.84 PBM z-score against 500 random probes in [5].

B10: NRC3_wobSeed31_DR1_G20C_o1 (dsDNA)
DNA 1: GCTCATATAGGTAAAAGGTCAAAGTCGGTGTGGTAAGCGATTGACAGCGTAGAATGAAGG
DNA 2: CCTTCATTCTACGCTGTCAATCGCTTACCACACCGACTTTGACCTTTTACCTATATGAGC
For B10, the binding signal in data set [1] was 8.7 PBM z-score against 500 random probes; in [2], 11.8 PBM z-score against 500 random probes; in [3] it was 6.94 PBM z-score against 500 random probes; in data set [5] it was 7.77 PBM z-score against 500 random probes.

B11: NRC3_wobSeed46_DR1_G21A_o1 (dsDNA)
DNA 1: GCTTACCAAGGTGAAAGGTCATTGATGCACGCCTTGGCGATTGACAGCGTAGAATGAAGG
DNA 2: CCTTCATTCTACGCTGTCAATCGCCAAGGCGTGCATCAATGACCTTTCACCTTGGTAAGC
As for B11, the binding signal is 8.42 PBM z-score against 500 random probes in [1], 10.9 PBM z-score against 500 random probes in data set [2], 6.54 PBM z-score against 500 random probes in [3] and 8.37 PBM z-score against 500 random probes in [5].

B12: NRC3_wobSeed42_DR1_C19G_o1 (dsDNA)
DNA 1: GCTATACAGGGTCAAAGGGCAGAGTACGAATGTCGAGCGATTGACAGCGTAGAATGAAGG
DNA 2: CCTTCATTCTACGCTGTCAATCGCTCGACATTCGTACTCTGCCCTTTGACCCTGTATAGC
B12: the binding signal in data set [1] is 8.22 PBM z-score against 500 random probes; in data set [2], 9.96 PBM z-score against 500 random probes; in data set [5], 7.26 PBM z-score against 500 random probes.

B13: NRC3_wobSeed32_DR1_A11G_o1 (dsDNA)
DNA 1: GCTCTTGTAGGTCAAAGGTTAAGAAAGCCGAAGCCTGCGATTGACAGCGTAGAATGAAGG
DNA 2: CCTTCATTCTACGCTGTCAATCGCAGGCTTCGGCTTTCTTAACCTTTGACCTACAAGAGC
As for B13, the binding signal in data set [1] is 9.29 PBM z-score against 500 random probes; in [2] it was 12.7 PBM z-score against 500 random probes; in data set [3], 7.1 PBM z-score against 500 random probes; in data set [5] it was 8.25 PBM z-score against 500 random probes.

B14: NRC3_random_hg19_307_o1 (dsDNA)
DNA 1: GCATGTTAGAGCTCATGGAGAAGTGTCCTATGTGATGCGATTGACAGCGTAGAATGAAGG
DNA 2: CCTTCATTCTACGCTGTCAATCGCATCACATAGGACACTTCTCCATGAGCTCTAACATGC
B14: the figures for the binding signal in data set [2], in data set [9] and in data set [5] were 0.17 PBM z-score against 500 random probes, -0.8 PBM z-score against 500 random probes and -0.77 PBM z-score against 500 random probes, respectively.

B15: NRC3_wobSeed73_DR3_C28T_o1 (dsDNA)
DNA 1: GCCAAACTAGGTCACAGAGGTCAAAGTTCGTGCGTAGCGATTGACAGCGTAGAATGAAGG
DNA 2: CCTTCATTCTACGCTGTCAATCGCTACGCACGAACTTTGACCTCTGTGACCTAGTTTGGC
Regarding B15, the binding signal is 8.65 PBM z-score against 500 random probes in data set [1], 10.8 PBM z-score against 500 random probes in data set [2], 7.41 PBM z-score against 500 random probes in [4] and 8.8 PBM z-score against 500 random probes in data set [5].

B16: NRC3_random_hg19_6_o1 (dsDNA)
DNA 1: GCACTCAGAGAGTTGAAGTGATTTGCCCAAGACCACGCGATTGACAGCGTAGAATGAAGG
DNA 2: CCTTCATTCTACGCTGTCAATCGCGTGGTCTTGGGCAAATCACTTCAACTCTCTGAGTGC
As for B16, the values for the binding signal in data set [2], in [10] and in [5] were 0.15 PBM z-score against 500 random probes, -0.28 PBM z-score against 500 random probes and 0.23 PBM z-score against 500 random probes, respectively.

(Values after paper PMC6555819, “Comprehensive study of nuclear receptor DNA binding provides a revised framework for understanding receptor specificity”.)
